Measurements as given in patent publication US20260115269A1, “MYC[…] CELL EPITOPES, MEGAPOOLS AND USES THEREOF” (La Jolla Institute for Immunology, priority 2022, published 2026).

Columns and labels:
[1] = system: PBMCs from ATB participants; experiment: Fluorospot screen of 517 overlapping 15-mer peptides spanning TB vaccine candidate and IGRA antigens; format: cell-based, human; conditions: overlapping 15-mers; IGRA+ data from previous study
[2] = system: PBMCs from participants mid-treatment for ATB; experiment: Proteome-wide peptide library screen: ex vivo IFNγ and IL-17 Fluorospot, positive pools deconvoluted to individual epitopes; format: cell-based, human; conditions: n=21

## Rv3874: Mtb IGRA antigen, tested as peptides
[1]
  antigen recognition in ATB (n=21) compared with healthy IGRA+ participants (n=63): most frequently recognized
[2]
  antigen recognition in the proteome-wide screen: most frequently recognized

B1: Rv0288: Mtb antigen, TB vaccine candidate antigen, tested as peptides (protein, UniProt P9WNK3 1-96, looked up)
ESAT-6-like protein EsxH: MSQIMYNYPAMLGHAGDMAGYAGTLQSLGAEIAVEQAALQSAWQGDTGITYQAWQAQWNQAMEDLVRAYHAMSSTHEANTMAMMARDTAEAAKWGG
modifications: tested as peptides
[1]
  antigen recognition in ATB (n=21) compared with healthy IGRA+ participants (n=63): most frequently recognized
[2]
  antigen recognition in the proteome-wide screen: most frequently recognized

B2: Rv3615c: Mtb antigen included in the ESAT-6 free IGRA test (protein, UniProt P9WJD7 2-103, looked up)
ESX-1 secretion-associated …: TENLTVQPERLGVLASHHDNAAVDASSGVEAAAGLGESVAITHGPYCSQFNDTLNVYLTAHNALGSSLHTAGVDLAKSLRIAAKIYSEADEAWRKAIDGLFT
[2]
  antigen recognition in the proteome-wide screen: most frequently recognized

B3: Rv1196: Mtb vaccine candidate antigen, tested as peptides (protein, UniProt L7N675 1-391, looked up)
PPE family protein PPE18: MVDFGALPPEINSARMYAGPGSASLVAAAQMWDSVASDLFSAASAFQSVVWGLTVGSWIGSSAGLMVAAASPYVAWMSVTAGQAELTAAQVRVAAAAYETAYGLTVPPPVIAENRAELMILIATNLLGQNTPAIAVNEAEYGEMWAQDAAAMFGYAAATATATATLLPFEEAPEMTSAGGLLEQAAAVEEASDTAAANQLMNNVPQALQQLAQPTQGTTPSSKLGGLWKTVSPHRSPISNMVSMANNHMSMTNSGVSMTNTLSSMLKGFAPAAAAQAVQTAAQNGVRAMSSLGSSLGSSGLGGGVAANLGRAASVGSLSVPQAWAAANQAVTPAARALPLTSLTSAAERGPGQMLGGLPVGQMGARAGGGLSGVLRVPPRPYVMPHSPAAG
modifications: tested as peptides
[1]
  antigen recognition in ATB (n=21) compared with healthy IGRA+ participants (n=63): most frequently recognized
